Sequences and labels used below:
T1: VLP-hCLDN6 (human, UniProt P56747 1-220)
T1 construct: also called VLP-CLDN6; AT-003-ag1
T1 sequence: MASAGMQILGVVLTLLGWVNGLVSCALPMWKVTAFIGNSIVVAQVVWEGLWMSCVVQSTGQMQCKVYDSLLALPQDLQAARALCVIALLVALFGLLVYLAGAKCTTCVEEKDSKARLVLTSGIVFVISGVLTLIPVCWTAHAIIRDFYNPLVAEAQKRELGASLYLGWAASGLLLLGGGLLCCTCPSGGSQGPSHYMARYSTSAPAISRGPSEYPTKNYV

B1: murine/human chimeric antibody cAb-1 (antibody, V domains shown)
VH: EVKLVESGGGLVKPGGSLKLSCAASGFTFNSYTMSWVRQTPAKRLEWVVTISSGGGRTYYPDSVKGRFTISRDNARNTLYLQMSSLRSEDTAMYYCIRGDYRYDGFAYWGQGTLVTVST
VL: DIQMTQSPASLSASVGETVTITCRASENIDSYLAWYQQKQGKSPQLLVYASTLLVDGVPSRFSGSRSGTQFSLKINSLQSEDVARYYCQHYYSIPYTFGSGTKLEIK
notes: also called VH0/VL0
B2: humanized antibody hAb-48 (antibody, V domains shown)
VH: EVQLVESGGGLVKPGGSLRLSCAASGFTFNDYTMSWVRQAPGKRLEWVVTISSGGGRTYYPDSVKGRFTISRDNAKNTLYLQMSSLRAEDTAVYYCIRGDYRYDAFAYWGQGTLVTVSS
VL: DIQMTQSPSSLSASVGDRVTITCRASENIDSYLAWYQQKPGKSPQLLVYASTLLVDGVPSRFSGSRSGTQFSLTISSLQPEDVARYYCQHYYSIPYTFGSGTKLEIK
notes: also called VH7VL4
B3: humanized antibody hAb-49 (antibody, V domains shown)
VH: EVQLVESGGGLVKPGGSLRLSCAASGFTFNDYTMSWVRQAPGKRLEWVVTISSGGGRTYYPDSVKGRFTISRDNAKNSLYLQMNSLRAEDTAVYYCIRGDYRYDAFAYWGQGTLVTVSS
VL: DIQMTQSPSSLSASVGDRVTITCRASENIDSYLAWYQQKPGKSPQLLVYASTLLVDGVPSRFSGSRSGTQFSLTISSLQPEDVARYYCQHYYSIPYTFGSGTKLEIK
notes: also called VH8VL4
B4: murine/human chimeric antibody cAb-18 (antibody, V domains shown)
VH: EVKLVESGGGLVKPGGSLKLSCAASGFTFNSYTMSWVRQTPAKRLEWVVTISSGGGRTYYPDSVKGRFTISRDNARNTLYLQMSSLRSEDTAMYYCIRGDYRYDKFAYWGQGTLVTVST
VL: DIQMTQSPASLSASVGETVTITCRASENIDSYLAWYQQKQGKSPQLLVYASTLLVDGVPSRFSGSRSGTQFSLKINSLQSEDVARYYCQHYYSIPYTFGSGTKLEIK
notes: also called cAb-1 with G100K
B5: murine/human chimeric antibody cAb-2 (antibody, V domains shown)
VH: EVKLVESGGGLVKPGGSLKLSCAASGFTFNEYTMSWVRQTPAKRLEWVVTISSGGGRTYYPDSVKGRFTISRDNARNTLYLQMSSLRSEDTAMYYCIRGDYRYDGFAYWGQGTLVTVST
VL: DIQMTQSPASLSASVGETVTITCRASENIDSYLAWYQQKQGKSPQLLVYASTLLVDGVPSRFSGSRSGTQFSLKINSLQSEDVARYYCQHYYSIPYTFGSGTKLEIK
notes: also called cAb-1 with S31E
B6: murine/human chimeric antibody cAb-3 (antibody, V domains shown)
VH: EVKLVESGGGLVKPGGSLKLSCAASGFTFNDYTMSWVRQTPAKRLEWVVTISSGGGRTYYPDSVKGRFTISRDNARNTLYLQMSSLRSEDTAMYYCIRGDYRYDGFAYWGQGTLVTVST
VL: DIQMTQSPASLSASVGETVTITCRASENIDSYLAWYQQKQGKSPQLLVYASTLLVDGVPSRFSGSRSGTQFSLKINSLQSEDVARYYCQHYYSIPYTFGSGTKLEIK
notes: also called cAb-1 with S31D

The target of the first experiment is T1, VLP-hCLDN6. Put plainly: ELISA on coated VLP-hCLDN6. (In general: ELISA stands for enzyme-linked immunosorbent assay.)
In general, EC50 refers to the concentration at which the effect is half-maximal. Higher therefore signals lower potency in that assay. B1: the EC50 came out at 0.59 nM. This lies in the sub-nanomolar range.

B2 registered an EC50 of 0.13 nM. Compared with the last molecule, the EC50 is about 4.5-fold lower.

Molecule B3 yielded an EC50 of 0.07 nM.

In another experiment the target is T1, VLP-hCLDN6. The experiment can be described thus: ELISA, VLP-CLDN6 coated 400 ng/well, 4-fold serial dilution, HRP goat anti-human IgG Fc.
Molecule B1 gave an EC50 of 0.59 nM. The molecule B4 showed an EC50 of 0.58 nM. This EC50 and that of the molecule before are within 1.5-fold of each other. Turning to B5, the EC50 was 0.52 nM. In the case of B6, it took 0.26 nM to reach a half-maximal effect (EC50).

(Values after patent EP4707304A1 (Axcynsis Therapeutics Pte. Ltd., dated 2024).)
